Reference: patent US10711248B2, “Device and method for standardizing myoblast differentiation into myotubes” (Cytoo, priority 2013, dated 2020)

B1: Wnt3a: Wnt molecule known to inhibit AChR clustering in mice (protein, UniProt P56704 19-352, looked up)
Protein Wnt-3a: SYPIWWSLAVGPQYSSLGSQPILCASIPGLVPKQLRFCRNYVEIMPSVAEGIKIGIQECQHQFRGRRWNCTTVHDSLAIFGPVLDKATRESAFVHAIASAGVAFAVTRSCAEGTAAICGCSSRHQGSPGKGWKWGGCSEDIEFGGMVSREFADARENRPDARSAMNRHNNEAGRQAIASHMHLKCKCHGLSGSCEVKTCWWSQPDFRAIGDFLKDKYDSASEMVVEKHRESRGWVETLRPRYTYFKVPTERDLVYYEASPNFCEPNPETGSFGTRDRTCNVSSHGIDGCDLLCCGRGHNARAERRREKCRCVFHWCCYVSCQECTRVYDVHTCK
B2: Wnt4: Wnt molecule known to stimulate AChR clustering in mice (protein, UniProt P56705 23-351, looked up)
Protein Wnt-4: SNWLYLAKLSSVGSISEEETCEKLKGLIQRQVQMCKRNLEVMDSVRRGAQLAIEECQYQFRNRRWNCSTLDSLPVFGKVVTQGTREAAFVYAISSAGVAFAVTRACSSGELEKCGCDRTVHGVSPQGFQWSGCSDNIAYGVAFSQSFVDVRERSKGASSSRALMNLHNNEAGRKAILTHMRVECKCHGVSGSCEVKTCWRAVPPFRQVGHALKEKFDGATEVEPRRVGSSRALVPRNAQFKPHTDEDLVYLEPSPDFCEQDMRSGVLGTRGRTCNKTSKAIDGCELLCCGRGFHTAQVELAERCSCKFHWCCFVKCRQCQRLVELHTCR

tested on: acetylcholine receptors (AChR) clustering in myotubes derived from human primary cells; assay: Acetylcholine receptor clustering in primary human myotubes cultured on micropatterns (TMR-Bungarotoxin probe); assay type: cell-based; conditions: FIG. 8A/8B
Experimental: FIG. 8B is a quantification of the regulation of cluster formation through agrin and Wnt signaling;
C2C12 mouse or primary human myoblasts (HSMM, Lonza) were cultured on fibronectin coated micropatterns within growth medium (DMEM, 20% FBS, 0.5% P/S, or Lonza SkGM™-2 cell culture Kit respectively) during 24 hours. Then both cell types were cultured within differentiation medium (DMEM/F12, 2% Horse Serum, 0.5% P/S) during 5 to 11 days for HSMM and C2C12 respectively. Differentiation medium were changed every 2 days. Cells were fixed and an immunostaining was realized against myosin heavy chain (in green in a color image—in light grey in the appended black&white figures), actin (in red in a color image—in medium grey in the appended black&white figures) and nuclei (in blue in a color image—in dark grey in the appended black&white figures). Images were acquired using an epifluorescence microscope (DMI6000, Leica).

Row | Molecule | Effect on AChR clustering / cluster formation
1 | agrin: treatment inducing acetylcholine receptor clustering in myotubes [reference compound] | large clustering
2 | B1 | inhibit
3 | B2 | stimulate
